Measurements: patent publication US20110143953A1

Legend:
[1] = biological target: AKT1 (as used in SPR), P31749; assay: SPR
transferrin, P02787 [2] = assay: SPR
transferrin, P02787 [3] = assay: SPR, transferrin immobilized, Kd from kinetics

transferrin, P02787, sequence (P02787 20-698 limits assumed): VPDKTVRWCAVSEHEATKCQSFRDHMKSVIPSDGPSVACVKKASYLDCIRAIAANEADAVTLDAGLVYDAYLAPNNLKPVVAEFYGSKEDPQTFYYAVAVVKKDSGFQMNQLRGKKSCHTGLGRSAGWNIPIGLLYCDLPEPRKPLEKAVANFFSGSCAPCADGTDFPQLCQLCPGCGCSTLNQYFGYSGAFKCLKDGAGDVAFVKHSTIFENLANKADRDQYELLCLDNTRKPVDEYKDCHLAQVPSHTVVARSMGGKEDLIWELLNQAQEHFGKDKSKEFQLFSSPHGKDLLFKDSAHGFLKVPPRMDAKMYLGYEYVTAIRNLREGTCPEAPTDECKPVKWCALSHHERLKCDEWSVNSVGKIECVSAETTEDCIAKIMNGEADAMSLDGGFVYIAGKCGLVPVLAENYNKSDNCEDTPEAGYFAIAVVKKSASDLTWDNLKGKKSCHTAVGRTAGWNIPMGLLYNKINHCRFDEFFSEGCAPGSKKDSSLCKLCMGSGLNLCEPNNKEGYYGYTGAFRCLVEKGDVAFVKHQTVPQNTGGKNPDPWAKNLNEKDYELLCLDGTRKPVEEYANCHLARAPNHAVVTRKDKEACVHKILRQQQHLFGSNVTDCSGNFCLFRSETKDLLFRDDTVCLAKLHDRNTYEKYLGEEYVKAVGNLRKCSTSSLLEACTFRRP
AKT1 (as used in SPR), P31749, sequence (P31749 whole entry): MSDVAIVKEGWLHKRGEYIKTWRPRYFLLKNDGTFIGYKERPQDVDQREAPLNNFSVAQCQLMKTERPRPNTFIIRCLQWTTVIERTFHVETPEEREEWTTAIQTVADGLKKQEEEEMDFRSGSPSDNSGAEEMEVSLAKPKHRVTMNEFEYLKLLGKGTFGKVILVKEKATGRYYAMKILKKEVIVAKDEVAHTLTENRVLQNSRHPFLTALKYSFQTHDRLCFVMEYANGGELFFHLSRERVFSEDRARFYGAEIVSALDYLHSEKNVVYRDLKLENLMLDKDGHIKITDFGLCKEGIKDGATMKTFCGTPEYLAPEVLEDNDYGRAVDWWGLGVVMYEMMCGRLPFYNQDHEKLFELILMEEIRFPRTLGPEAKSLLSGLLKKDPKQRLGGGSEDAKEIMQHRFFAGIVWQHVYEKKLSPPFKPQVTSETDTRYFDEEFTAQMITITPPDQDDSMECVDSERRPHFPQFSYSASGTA

Kd [1]: 1 nM | Kd (transferrin, P02787 [2]): 141 nM | Kd (transferrin, P02787 [3]): 150 nM
B1: SYN23-26 (designed binder)
peptide 1: FRGWAHIFFGPHVIYRGGSG
peptide 2: AHKVVPQRQIRHAYNRYGSG
modifications: not fully specified; C-terminal glycine joined to one of the two amines (alpha or epsilon) of a lysine linker; chain 1 pos 20 and chain 2 pos 20: the C-terminal Gly of each 20-mer is joined to the alpha or the epsilon amine of one branching lysine (about 1 nm spacing). The lysine is followed by a C-terminal cysteine whose thiol is biotinylated for the array. The Lys-Cys core is left out of the …
